This is an account of results in article PMC3912440 (Scientific Reports, 2014).

The test system of this assay is Mononuclear cell-derived human myeloid dendritic cells. The class given is cell-based. Conditions: 0.02 μM HagB alone.

B1: HagB: recombinant hemagglutinin B of P. gingivalis, 49.0 kDa protein composed of 350 amino acid residues (protein)
chain: MTVENLRLQRLQNLEHYRFAKNVLTLCRTANIAKLNPKLPELEKAIEMEDLALNPPVANELTPQVIALDEERDRAYQALMSRVRSYAFDEDSQLRNAAARIEDVAARYGNVIRMNYDKETAAIENFLTDLKGENIRPLVTKLGVTALVDRLEKNNKAFADFFLRRLSTDQRGKYDVKALRAETDRTLVAVVRRMDSIDDMEPSPEIRALIELYNRLVANRRALLARRASYGEAAVEKRRAEIAEMLRPLLARIVEEKKTAVFAGRTLGTGKNRHYLITFVAENGDEEDRWYRINGEQLVYVPEDELPKPKKKKKPASSTDTPSEPPVLPDPSQGGSSSGGGEQGSTGGGL
modifications: left off: His6 (from the vector pQE31), end not stated, state not stated
In the case of B1, the “CCL3/MIP-1α, CCL4/MIP-1β, and TNFα responses induced” value is reported as “strong”; the CSF2/GM-CSF response induced entry is listed as “weaker”.
